Experiment [1] deals with T1, recombinant human IL-23 (human, UniProt Q9NPF7 20-189; P29460 23-328).
T1 construct: also called hIL-23
T1 sequence 1: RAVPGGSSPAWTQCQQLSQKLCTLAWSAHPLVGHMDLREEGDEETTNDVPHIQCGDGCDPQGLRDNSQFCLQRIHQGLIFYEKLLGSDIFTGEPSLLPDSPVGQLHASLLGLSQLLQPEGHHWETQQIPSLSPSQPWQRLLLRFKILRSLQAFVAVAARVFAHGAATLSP
T1 sequence 2: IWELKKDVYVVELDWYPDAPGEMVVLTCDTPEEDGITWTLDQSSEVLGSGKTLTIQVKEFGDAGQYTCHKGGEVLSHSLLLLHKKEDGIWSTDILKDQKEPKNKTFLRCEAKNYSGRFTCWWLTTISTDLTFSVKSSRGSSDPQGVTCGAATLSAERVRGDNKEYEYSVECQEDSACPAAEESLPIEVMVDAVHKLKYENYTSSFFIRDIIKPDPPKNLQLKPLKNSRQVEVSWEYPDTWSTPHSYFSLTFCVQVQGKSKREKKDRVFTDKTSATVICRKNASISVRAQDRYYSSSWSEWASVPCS
In words: SPR (Biacore T100), tissue culture supernatant antibody captured on anti-human IgG, IL-23 analyte. The procedure: Biacore analysis was carried out using a capture surface on a CM5 chip. Anti-human IgG (BR-1008-39) was used as the capturing agent. Anti-human IgG was coupled to a CM5 biosensor chip by primary amine coupling. Humanized antibody was captured on this immobilised surface and defined concentrations of IL-23 were passed over this captured surface. An injection of buffer over the captured antibody surface was used for double-referencing. […] T100 Biacore machine was used to generate the data; all runs were carried out at 25° C. using HBS EP. Data was analysed using the software inherent to the machine and fitted to the 1:1 model of binding. Tables 7 and 8 detail the IL-23 binding analysis carried out on the 8C92H6.HC1LC1 chimera and selected humanized variants in two separate experiments. […] The data shown for the humanized variants is representative of a number of runs. The chimeric mAb (8C9H6.HC1LC1) was only run once in each experiment, so data shown for this mAb is from that one run.

Experiment [2] concerns the target T1, recombinant human IL-23. In words: IL-23/IL-23R inhibition ELISA (first protocol, OD490): plate coated with human IL23R Fc chimera, antibody pre-incubated with constant human IL-23, bound IL-23 detected with biotinylated anti-human IL-12; tissue culture supernatant. As for the experimental part: Chimeric and humanized mAbs were assessed for their ability to neutralise human IL-23 binding to human IL-23 receptor, and cyno IL23 binding to human IL23 receptor. Plates were coated with human IL23R Fc chimera at 1 μg/diluent (bicarbonate buffer). 50 μl/well of this mixture was incubated overnight at 4° C. The plates were then washed twice with Tris Buffered Saline with 0.05% Tween 20 (TBST). Plates were blocked with 1% BSA TBST 100 μl/well for a minimum of 1 hour at room temperature. The plates were then washed twice with Tris Buffered Saline with 0.05% Tween 20 (TBST). Various concentrations of antibody were incubated in a separate plate with a constant concentration of IL-23 for 1 hour at room temperature. 50 ul of each mixture were transferred to the assay plate and incubated at RT for 1 hr. They were then washed twice with Tris Buffered Saline with 0.05% Tween 20 (TBST). Bound IL23 was detected by anti human 1L12 Biotin labelled Ab (R&D systems BAF219) diluted to 100 ng/ml in 1% BSA TBST. 50 μl/well of the biotinylated antibody was added and incubated at RT for 1 hour. The plates were then washed twice with Tris Buffered Saline with 0.05% Tween 20 (TBST). ExtrAvidin-Peroxidase (Sigma E2886) was diluted 1/1000 in 1% BSA TBST, 50 μl/well was added to the plates. […] The plate was read at OD490 nm using the SOftmaxPRO versamax plate reader.

B1: A3M0 (antibody, human IgG1, kappa, V domains shown)
VH: QVQLVQSGAEVKKPGSSVKVSCKASGYTFTSYGITWVRQAPGQGLEWMGENYPRSGNTYYNEKFKGRVTITADKSTSTAYMELSSLRSEDTAVYYCARSEFISTVVAPYYYALDYWGQGTLVTVSS
VL: DIVMTQSPDSLAVSLGERATINCKASKKVTIFGSISALHWYQQKPGQPPKLIYNGAKLESGVPDRFSGSGSGTDFTLTISSLQAEDVAVYYCLQNKEVPYTFGGGTKVEIKR
notes: Full length chains; also called humanized mAb A3M0
As to B1, in the experiment with recombinant human IL-23 [1], the Kd is 0.17 nM, the koff stood at 0.000234 s⁻¹ and the kon came to 1.38e+06 M⁻¹ s⁻¹.

B2: chimeric 8C92H6 HC1LC1 (antibody, V domains shown)
VH: QVQLQQSGAELARPGTSVKLSCKASGYTFTSYGITWVKQRTGQGLEWIGENYPRSGNTYYNEKFKGKATLTADKSSSTAYMELRSLTSEDSAVYFCARCEFISTVVAPYYYALDYWGQGTSLVTVS
VL: DIVLTQSPASLAVSLGQKATISCKASKKVTIFGSISALHWYQQKPGQPPKLIYNGAKLESGVSARFSDSGSQNRSPFGNQLSFTLTIDPVEADDAATYYCLQNKEVPYTFGGGTKLEIKR
notes: Murine variable regions with human constant regions; also called 8C92H6.HC1LC1 Chimera; 8C9 chimera
For B2, the “IC50 (read off the curve)” value with recombinant human IL-23 [2] is approximately 6 ng/mL.

These data come from US20090123479A1 (published 2009).
